The values that follow come from US20230227790.

For this data set, the target named is component B (compB) protein (I53-50B). The experiment in a line: SEC-HPLC after sub-surface pipette addition and orbital agitation overnight. A general note: In gel filtration, larger molecules generally elute earlier.

B1: component A (compA) protein (I53-50A) fused to RSV antigen (protein)
chain: MEELFKKHKIVAVLRANSVEEAIEKAVAVFAGGVHLIEITFTVPDADTVIKALSVLKEKGAIIGAGTVTSVEQCRKAVESGAEFIVSPHLDEEISQFCKEKGVFYMPGVMTPTELVKAMKLGHTILKLFPGEVVGPQFVKAMKGPFPNVKFVPTGGVNLDNVCEWFKAGVLAVGVGSALVKGTPDEVREKAKAFVEKIRGCTE
Consider B1, for which the “VLP assembly peak (% by HPLC)” value is listed as “formation of the VLP assembly (50%)”.
